Residue numbers refer to the chain shown, from its start. Names and notes keep the numbering of the source.
B1: Deinococcus geothermalis DdrO (residues 12-140) (natural protein)
chain: MGSSHHHHHHSSGLVPRGSHMKLHERLRELRSERGLRLKDVAETAGISVPYLSDLERGRTNPSLETLQTLAGAYSITVHDLLEGVEFYGDSTEGALPKGLADLVADPLLGSQITPDWVRTLSRIELRGKRPRDKQDWYEIYLHLKRILG
B2: DG-DdrO R22A (natural protein)
chain: B1 chain with R31A
B3: DG-DdrO Y129A (natural protein)
chain: B1 chain with Y138A
B4: DG-DdrO Y132A (natural protein)
chain: B1 chain with Y141A

Target: the molecule itself
Assay: SEC

Stoichiometry N, 2:
B1
B2
B3
B4

Source: publication PMC6765133 (Nucleic Acids Research, 2019)
